The values below are quoted from earlier work in US20120128767A1, “THERAPEUTIC CALCIUM PHOSPHATE PARTICLES AND METHODS OF MAKING AND USING SAME” (priority 2008, published 2012).

Like-named read-outs stand apart in the source and are kept apart here.

insulin: the absorption efficiency result (insulin added to preformed calcium phosphate particles) was “about 40%” and the absorption efficiency result (insulin mixed during the particle formation) is reported as “about 89%”.
